# In patent US20180118786A1 (published 2018):
# Starred links: 1 amine or outer side, 2 acyl side, 3 side chain; linkers in the order of their positions; H or OH if unused. Positions of bridges follow the written chain, without caps; N, C: chain ends. No end group written: not given here. TATA = O=C(CC[*:1])N1CN(C(=O)CC[*:2])CN(C(=O)CC[*:3])C1
# T1: human β-FXIIa (HFXIIAB; Molecular Innovations) (human, UniProt P00748 354-362; P00748 373-615)
# T1 chain 1: NGPLSCGQR
# T1 chain 2: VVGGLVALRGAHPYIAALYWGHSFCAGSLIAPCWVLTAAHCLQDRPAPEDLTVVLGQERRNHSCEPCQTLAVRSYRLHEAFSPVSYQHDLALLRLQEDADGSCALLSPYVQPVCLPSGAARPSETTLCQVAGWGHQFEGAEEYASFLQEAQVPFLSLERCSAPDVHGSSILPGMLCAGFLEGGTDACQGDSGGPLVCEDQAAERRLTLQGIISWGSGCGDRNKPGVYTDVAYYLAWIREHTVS
# B1: peptide 18 (peptide 2, Pro6 to leucine) (peptide)
# peptide: RCFRLLCRQLRCRW-NH2
# modifications: linker 2-7-12 via TATA; N-terminus assumed
# SMILES: CC(C)C[C@@H]1NC(=O)[C@H](CCC(N)=O)NC(=O)[C@H](CCCNC(=N)N)NC(=O)[C@@H]2CSCCC(=O)N3CN(CN(C3)C(=O)CCSC[C@H](NC(=O)[C@@H](N)CCCNC(=N)N)C(=O)N[C@@H](Cc3ccccc3)C(=O)N[C@@H](CCCNC(=N)N)C(=O)N[C@@H](CC(C)C)C(=O)N[C@@H](CC(C)C)C(=O)N2)C(=O)CCSC[C@@H](C(=O)N[C@@H](CCCNC(=N)N)C(=O)N[C@@H](Cc2c[nH]c3ccccc23)C(N)=O)NC(=O)[C@H](CCCNC(=N)N)NC1=O
# Molecular target: T1, human β-FXIIa (HFXIIAB; Molecular …)
# Assay: enzyme inhibition
row,Binder,Ki [nM]
1,RCFRLPCSQLSCE [FXII613],62
2,RCFRLPCRQLSCE [FXII614],39
3,RCPRLPCAQLRCE [FXII609],123
4,RCFRLPCRQLRCA [FXII616],31
5,RCFRLPCAQLRCR [FXII617],25
6,RCPRLPCAQLSCE [FXII607],985
7,RCFRLPCWQLSCE [FXII615],246
8,RCFRLPCAQLRCE [FXII608],44
9,ACFRLPCAQLSCE [FXII610],231
10,RCFRLPCEQLSCE [FXII612],63

# Molecular target: T1, human β-FXIIa (HFXIIAB; Molecular …)
# Assay: enzyme inhibition; TATA-cyclized
row,Binder,Ki [nM]
1,LCSRLPCEQLPCN [FXII514],10200
2,ACWGAAQRCKVMQGECG [FXII528],3700
3,ACWGAASACQQGGAKCG [FXII534],2400
4,ACWGACQNVCR [FXII506],6300
5,VCWGACLNVCP [FXII504],1900
6,RCWGACLNVCS [FXII502],1200
7,GCCYLRYLCS [FXII513],350
8,RCWYGCVPQCY [FXII509],1000
9,ACWGAALSCNPQGSRCG [FXII527],8500
10,LCPRLSCHQLGCS [FXII515],2500

# Molecular target: T1, human β-FXIIa (HFXIIAB; Molecular …)
# Assay: enzyme inhibition
# Remark: another data set of the same source
row,Binder,Ki [nM]
1,RCFRLNCRQLRCR [Pro6 Asparagine (19)],264
2,B1,20
3,RCFRLDCRQLRCR [Pro6 Aspartic acid (20)],307
